Patent publication US7939064B2 (priority 2006, dated 2011)
“Also recorded” adds a separate entry of the source.

Key:
[1] = test system: transient cerebral focal ischemia (left middle cerebral artery occlusion); details: rat, in vivo
[2] = test system: neurons in striatum and cortex of ischemic brains; assay: Haematoxylin and eosin histology of ischemic brain sections; type: in vivo, rat; details: NsPLA2 at 0 min post-occlusion
Text: The ability of NsPLA2 to protect neurons from cell death was investigated. Paraffin-embedded rat brains were sectioned and stained with haematoxylin and eosin. […] Neurons appeared shrunken and nuclei were dysmorphic and pyknotic.

[3] = test system: neurons in striatum and cortex of ischemic brains; details: rat, in vivo
[4] = test system: gene expression in ischemic brain; assay: Microarray gene expression analysis (RAE-230A GeneChips) of MCAo and MCAo+NsPLA2 brains; type: in vivo, rat
Text: Cerebral ischemia is a powerful stimulus for the de novo expression of many gene systems and identification of genes differentially expressed in the ischemic and non-ischemic brain can help illuminate pathophysiology and provide therapeutic targets in ischemia. Analysis of gene expression can also aid in elucidating the role of various pathways or specific genes in the mechanism of action of neuroprotective agents. Consequently, the power of high-density oligonucleotide arrays was harnessed to generate global expression profiles of non-ischemic, ischemic and NsPLA2-treated brains. RNA isolated from the brains of sham-operated rats (sham-op; n=4), rats subjected to 60 min of MCAo (MCAo; n=4) and rats subjected to 60 min of MCAo but treated with 30 μg/200 g body weight NsPLA2 immediately post-occlusion (MCAo+NsPLA2; n=4) was pooled before microarray probe preparation and hybridization to minimize inter-individual variation. Expression analysis was carried out using GeneChips from the RAE-230A Array set, with each chip representing ˜15,900 genes and expressed sequence tags (ESTs). Genes whose expression changed by 1.7-fold or greater in at least one pairwise comparison (between sham-op and MCAo or between MCAo and MCAo+NsPLA2) were deemed significant.
In an attempt to understand the mechanisms by which NsPLA2 may confer neuroprotection, the gene expression profiles of MCAo and MCAo+NsPLA2 were compared. […] They are listed in Table 1 and include genes involved in cell growth and maintenance (retinol-binding protein, regulator of G-protein signalling 2, DNA topoisomerase, X transporter protein 3, hemoglobin &chain complex, nucleosome assembly protein 1-like, cyclin-dependent kinase inhibitor 1A and chloride intracellular channel 4), development (tropomyosin 4 and neurogenic differentiation 1), lipid metabolism (tissue inhibitor of metalloproteinase 1 and sulfotransferase family 1A), Ca^2+-binding (calpactin 1 heavy chain, calgranulin A, protein disulfide isomeraserelated protein and S-100 related protein), maintenance of cytoskeletal structure (tropomyosin 1 and moesin), defense response (CD44 antigen), regulation of blood pressure (angiotensinogen), cell-cell signaling (thyrotropin releasing hormone), antioxidant activity (glutathione-S-transferase), proteolysis (MMP-9), cell adhesion (l-gicerin) and transcriptional regulation (POU domain).

[5] = test system: gene expression in ischemic brain; assay: Real-time PCR quantitation of nine genes in MCAo and NsPLA2-treated brains; type: in vivo, rat; details: NsPLA2 treatment relative to MCAo brain
Text: The expression of nine genes that may have important roles in mediating the neuroprotective action of NsPLA2 was quantitated by real-time PCR (FIG. 8). Specific primers were used for PCR amplification. The relative expression of each gene in the heart was obtained after normalizing against an internal control (18S ribosomal RNA) and a calibrator, in this case, the sham-operated control or MCAo brain, FIGS. 8A and B respectively, relative gene expression=1).

TNF-a = details: rat, in vivo
[6] = LD50 and signs of toxicity of NsPLA2
[7] = test system: Bcl-2, Bcl-XL and Bax genes; assay: Real-time PCR of anti-/pro-apoptotic genes in OGD hippocampal tissues; details: OGD and NsPLA2 treatment
Experimental: (A) Organotypic hippocampal cultures were subjected to OGD (oxygen-glucose deprivation) for 90 mins and treated with NsPLA2. […] Total RNA was isolated from the hippocampal tissues and subjected to reverse transcription and PCR. The data was derived from 6 independent PCR (n=6).
Thus, we carried out experiments using the organotypic hippocampal cultures, in conditions where oxygen is eliminated by using the 95% N2 and 5% CO2 and glucose was deprived in cultures by using culture media without glucose.

[8] = NsPLA2-treated vs saline-treated MCAo brain

B1: tPA: tissue plasminogen activator, thrombolytic serine protease converting plasminogen to plasmin (protein, UniProt P00750 36-562, looked up)
Tissue-type plasminogen …: SYQVICRDEKTQMIYQQHQSWLRPVLRSNRVEYCWCNSGRAQCHSVPVKSCSEPRCFNGGTCQQALYFSDFVCQCPEGFAGKCCEIDTRATCYEDQGISYRGTWSTAESGAECTNWNSSALAQKPYSGRRPDAIRLGLGNHNYCRNPDRDSKPWCYVFKAGKYSSEFCSTPACSEGNSDCYFGNGSAYRGTHSLTESGASCLPWNSMILIGKVYTAQNPSAQALGLGKHNYCRNPDGDAKPWCHVLKNRRLTWEYCDVPSCSTCGLRQYSQPQFRIKGGLFADIASHPWQAAIFAKHRRSPGERFLCGGILISSCWILSAAHCFQERFPPHHLTVILGRTYRVVPGEEEQKFEVEKYIVHKEFDDDTYDNDIALLQLKSDSSRCAQESSVVRTVCLPPADLQLPDWTECELSGYGKHEALSPFYSERLKEAHVRLYPSSRCTSQHLLNRTVTDNMLCAGDTRSGGPQANLHDACQGDSGGPLVCLNDGRMTLVGIISWGLGCGQKDVPGVYTKVTNYLDWIRDNMRP
In the case of B1, the “effect on infarct volume after transient ischemia” value [1] is reported as “did not significantly reduce infarct volume” and the “neuroprotection compared with the phospholipase A2” value [1] is reported as “less neuroprotective”.

B2: NsPLA2 (protein)
chain: NLYQFKNMVQCTVPNRSWWHFADYGCYCGRGGSGTPVDDLDRCCQIHDNCYNEAEKISRCWPYFKTYSYECSQGTLTCKGGNNACAAAVCDCDRLAAICFAGAPYNDNNYNIDLKARCQ
modifications: Naja sputatrix
With B2 the “brain infarction compared to saline-treated control” value [1] was “no effect”, the “infarct size, TTC staining of serial brain sections” value [1] was “significant reduction in infarct size; also recorded: reduced the infarct size but to a lesser extent” and the “reduction of focal ischemia / infarct size (summary statement)” value [1] was 80%. The “ischemic damage, cellular morphology (haematoxylin and eosin)” value [2] was “significantly reduced ischemic damage”, the “degree of apoptosis (TUNEL)” value [3] was “greatly reduced” and the “fold change, Adipose differentiation-related protein (1390383_at)” value [4, 8] was −1.75 fold. The “fold change, CD9 antigen (1371499_at)” value [4, 8] was −2.6 fold, the “fold change, CD44 antigen (1387952_a_at)” value [4, 8] was −3.7 fold and the “fold change, Calcium/calmodulin-dependent protein kinase (CaM kinase) II gamma (1369993_at)” value [4, 8] was 1.74 fold. The “fold change, Chloride intracellular channel 4 (1387420_at)” value [4, 8] was −1.9 fold, the “fold change, DNA topoisomerase I (1369421_at)” value [4, 8] was −4.6 fold and the “fold change, I-gicerin (1369793_a_at)” value [4, 8] was −1.75 fold. For the same molecule, the “fold change, NOV protein (1376734_at)” value [4, 8] was 1.87 fold, the “fold change, ProSAPiP1 protein (1373057_at)” value [4, 8] was 1.74 fold and the “fold change, S100 calcium-binding protein A8 (calgranulin A) (1368494_at)” value [4, 8] was −1.75 fold. For the same molecule, the “fold change, S-100 related protein (1386890_at)” value [4, 8] was −1.9 fold, the “fold change, Similar to endothelial monocyte-activating polypeptide (1375170_at)” value [4, 8] was −1.9 fold and the “fold change, Similar to plexinB1 (1374444_at)” value [4, 8] was 2 fold. For the same molecule, the “fold change, Similar to tropomodulin 3 (1372500_at)” value [4, 8] was −1.75 fold, the “fold change, X transporter protein 3 (1369705_at)” value [4, 8] was −1.75 fold and the “fold change, aldose reductase-like protein (1370902_at)” value [4, 8] was −2.6 fold. The “fold change, angiotensinogen (1387811_at)” value [4, 8] was 1.87 fold, the “fold change, calpactin I heavy chain (1367584_at)” value [4, 8] was −1.75 fold and the “fold change, cyclin-dependent kinase inhibitor 1A (1387391_at)” value [4, 8] was −3 fold. The “fold change, fibulin 2 (1389533_at)” value [4, 8] was −1.75 fold, the “fold change, gap junction protein, beta 6 (connexin 30) (1368577_at)” value [4, 8] was 1.87 fold and the “fold change, glutathione S-transferase, alpha 1 (1367774_at)” value [4, 8] was 2 fold. For the same molecule, the “fold change, hemoglobin beta chain complex (1371102_x_at)” value [4, 8] was −1.75 fold, the “fold change, homer, neuronal immediate early gene, 1 (1370997_at)” value [4, 8] was −2.44 fold and the “fold change, matrix metalloproteinase 9 (1369166_at)” value [4, 8] was −2 fold. The “fold change, microtubule-associated protein, RP/EB family, member 1 (1370792_at)” value [4, 8] was −4.3 fold, the “fold change, moesin (1368948_at)” value [4, 8] was −2.3 fold and the “fold change, neurogenic differentiation 1 (1387288_at)” value [4, 8] was 1.74 fold. For the same molecule, the “fold change, nucleosome assembly protein 1-like 1 (1373473_a_at)” value [4, 8] was −2.3 fold, the “fold change, ornithine decarboxylase antizyme inhibitor (1370575_a_at)” value [4, 8] was −1.9 fold and the “fold change, protein disulfide isomerase related protein (calcium-binding protein) (1370007_at)” value [4, 8] was −2 fold. For the same molecule, the “fold change, regulator of G-protein signaling protein 2 (1368144_at)” value [4, 8] was −2.44 fold, the “fold change, retinol binding protein 1 (1367939_at)” value [4, 8] was −1.75 fold and the “fold change, serine (or cysteine) proteinase inhibitor, clade H, member 1 (1371310_s_at)” value [4, 8] was −1.9 fold. For the same molecule, the “fold change, sulfotransferase family 1A, phenol-preferring, member 1 (1370019_at)” value [4, 8] was 1.87 fold, the “fold change, syndecan 1 (1367849_at)” value [4, 8] was −1.9 fold and the “fold change, thyrotropin releasing hormone (1368912_at)” value [4, 8] was −3.5 fold. For the same molecule, the “fold change, tissue inhibitor of metalloproteinase 1 (1367712_at)” value [4, 8] was −2 fold, the “fold change, tropomyosin 1, alpha (1370288_a_at)” value [4, 8] was −2.44 fold and the “fold change, tropomyosin 4 (1368838_at)” value [4, 8] was −2.1 fold. The “fold change, tumor rejection antigen gp96 (1388331_at)” value [4, 8] was −2.1 fold, the “fold change, glutathione S-transferase, alpha 1 (1367774_at)” value ([4]; NsPLA2-treated vs saline-treated MCAo brain, listed as PLA2) was “+2.0 fold” and the “decrease in expression of thyrotropin releasing hormone” value ([4]; after PLA2 treatment) was 3.5 fold. The “expression of glutathione-S-transferase, CAM kinase II and angiotensinogen (real-time PCR)” value [5] was “increased”, the “expression of thyrotropin releasing hormone, secreted phosphoprotein, moesin, MMP-9, TIMP-1 and calgranulin A (real-time PCR)” value [5] was “decreased” and the systemic inflammation (TNF-a) was “did not induce systemic inflammation”. For the same molecule, the signs of toxicity ([6]; 30 μg/200 g body weight i.v.) was “did not induce any signs of toxicity”, the LD50 ([6]; rat, in vivo) was 125 μg/200 g body weight and the “Bax gene expression (real-time PCR)” value [7] was “down-regulated”. For the same molecule, the “Bcl-2 gene expression (real-time PCR)” value [7] was “up-regulated” and the “Bcl-XL gene expression (real-time PCR)” value [7] was “up-regulated”.
